Experimental data taken from patent US20250042984A1.

How the values were obtained:
[1] = biological target: VEGF-B (extracellular domain) (UniProt P49765); test: potency ELISA, VEGF-B coated plate; 160 mg/mL formulation in glass vials, 0 months (25 C table)
[2] = biological target: VEGF-B (extracellular domain) (UniProt P49765); test: potency ELISA, VEGF-B coated plate; 160 mg/mL formulation in glass vials, 3 months at 25 C
[3] = biological target: VEGF-B (extracellular domain) (UniProt P49765); test: potency ELISA, VEGF-B coated plate; 160 mg/mL formulation in glass vials, 6 months at 25 C
[4] = biological target: VEGF-B (extracellular domain) (UniProt P49765); test: potency ELISA, VEGF-B coated plate; 160 mg/mL formulation in glass vials, 6 months at 35 C
[5] = biological target: VEGF-B (extracellular domain) (UniProt P49765); test: potency ELISA, VEGF-B coated plate; 160 mg/mL formulation in glass vials, 1 month at 35 C
[6] = biological target: VEGF-B (extracellular domain) (UniProt P49765); test: potency ELISA, VEGF-B coated plate, HRP detection, 4PL and parallel line analysis; 160 mg/mL formulation in glass vials, 0 months (5 C table)
[7] = biological target: VEGF-B (extracellular domain) (UniProt P49765); test: potency ELISA, VEGF-B coated plate; 160 mg/mL formulation in glass vials, 12 months at 5 C
[8] = biological target: VEGF-B (extracellular domain) (UniProt P49765); test: potency ELISA, VEGF-B coated plate; 160 mg/mL formulation in glass vials, 1 month at 25 C
[9] = biological target: VEGF-B (extracellular domain) (UniProt P49765); test: potency ELISA, VEGF-B coated plate; 160 mg/mL formulation in glass vials, 3 months at 5 C
[10] = biological target: VEGF-B (extracellular domain) (UniProt P49765); test: potency ELISA, VEGF-B coated plate; 160 mg/mL formulation in glass vials, 0 months (35 C table)
[11] = biological target: VEGF-B (extracellular domain) (UniProt P49765); test: potency ELISA, VEGF-B coated plate; 160 mg/mL formulation in glass vials, 9 months at 35 C
[12] = biological target: VEGF-B (extracellular domain) (UniProt P49765); test: potency ELISA, VEGF-B coated plate; 160 mg/mL formulation in glass vials, 12 months at 35 C
[13] = biological target: VEGF-B (extracellular domain) (UniProt P49765); test: potency ELISA, VEGF-B coated plate; 160 mg/mL formulation in glass vials, 3 months at 35 C
[14] = biological target: VEGF-B (extracellular domain) (UniProt P49765); test: potency ELISA, VEGF-B coated plate; 160 mg/mL formulation in glass vials, 1 month at 5 C
[15] = biological target: VEGF-B (extracellular domain) (UniProt P49765); test: potency ELISA, VEGF-B coated plate; 160 mg/mL formulation in glass vials, 12 months at 25 C
[16] = biological target: VEGF-B (extracellular domain) (UniProt P49765); test: potency ELISA, VEGF-B coated plate; 160 mg/mL formulation in glass vials, 9 months at 5 C
[17] = biological target: VEGF-B (extracellular domain) (UniProt P49765); test: potency ELISA, VEGF-B coated plate; 160 mg/mL formulation in glass vials, 9 months at 25 C
[18] = biological target: VEGF-B (extracellular domain) (UniProt P49765); test: potency ELISA, VEGF-B coated plate; 160 mg/mL formulation in glass vials, 6 months at 5 C

UniProt P49765, sequence (P49765 22-207): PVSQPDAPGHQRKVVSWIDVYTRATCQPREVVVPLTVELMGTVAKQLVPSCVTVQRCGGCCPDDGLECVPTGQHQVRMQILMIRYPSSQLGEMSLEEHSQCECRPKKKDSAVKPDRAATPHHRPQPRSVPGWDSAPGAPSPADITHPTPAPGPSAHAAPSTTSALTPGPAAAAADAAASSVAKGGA

Surrogate potency for VEGF-B binding by ELISA (relative to CSL346 reference standard) (% relative to reference standard) [1]: 105
Surrogate potency for VEGF-B binding by ELISA (relative to CSL346 reference standard) (% relative to reference standard) [2]: 113
Surrogate potency for VEGF-B binding by ELISA (relative to CSL346 reference standard) (% relative to reference standard) [3]: 95
Surrogate potency for VEGF-B binding by ELISA (relative to CSL346 reference standard) (% relative to reference standard) [4]: 95
Surrogate potency for VEGF-B binding by ELISA (relative to CSL346 reference standard) (% relative to reference standard) [5]: 115
Surrogate potency for VEGF-B binding by ELISA (relative to CSL346 reference standard) (% relative to reference standard) [6]: 105
Surrogate potency for VEGF-B binding by ELISA (relative to CSL346 reference standard) (% relative to reference standard) [7]: 110
Surrogate potency for VEGF-B binding by ELISA (relative to CSL346 reference standard) (% relative to reference standard) [8]: 107
Surrogate potency for VEGF-B binding by ELISA (relative to CSL346 reference standard) (% relative to reference standard) [9]: 96
Surrogate potency for VEGF-B binding by ELISA (relative to CSL346 reference standard) (% relative to reference standard) [10]: 105
Surrogate potency for VEGF-B binding by ELISA (relative to CSL346 reference standard) (% relative to reference standard) [11]: 98
Surrogate potency for VEGF-B binding by ELISA (relative to CSL346 reference standard) (% relative to reference standard) [12]: 106
Surrogate potency for VEGF-B binding by ELISA (relative to CSL346 reference standard) (% relative to reference standard) [13]: 92
Surrogate potency for VEGF-B binding by ELISA (relative to CSL346 reference standard) (% relative to reference standard) [14]: 109
Surrogate potency for VEGF-B binding by ELISA (relative to CSL346 reference standard) (% relative to reference standard) [15]: 136
Surrogate potency for VEGF-B binding by ELISA (relative to CSL346 reference standard) (% relative to reference standard) [16]: 109
Surrogate potency for VEGF-B binding by ELISA (relative to CSL346 reference standard) (% relative to reference standard) [17]: 101
Surrogate potency for VEGF-B binding by ELISA (relative to CSL346 reference standard) (% relative to reference standard) [18]: 101
Substance: anti-VEGFB antibody (CSL346)
